Measurements from the DeepSol protein solubility set.

Assay: soluble on expression in E. coli; label from the status in PepcDB or PDB records

| Sequence | soluble on expression in E. coli |
| --- | --- |
| MALAPHAVHRLYEYRKSISTKPFGARGKKLIRCPLCLLGEQFCTCSLRKQLTTQASFLLIMYNDEVLKPTNSGRLIADLIPDTHAFLWSRTDPAPELLALLSSDHYQPFLVFPAQYADQGQTVLSQVPMATLAKGKRPLLIMLDGSWREAIKMFRKSPYLQGLPILSFDPDTLATYALRKGSHDFQLGTAEVASLALAAMGEEANGKALTAWFDLFVESSLLGRNRRCREDILPISDFTNAFEVAYTAATP | not soluble |
| MALDITDESEIYNLDSLVSYSQGGCKAEHDWRIGTEHEKFPFYRGDFRPVPYEGSRGIRALLEGMQKALGWEPILDEGNIIGLVGSVGQGAISLEPGGQFELSGALLKTIGDTYCEVIEHLALLKKISEPLGIGFLGIGASPKWTLTETPRMPKSRYRIMANYMPKVGHSGLDMMYRTSTVQVNLDFSSETDMRRKMQVSMKLQSIATALFASSPFTEGRPNGFLSWRSEIWCDTDNQRTGVLPFIFSERFGFADYVEWALDVPMYFVVRDGRYYDCTHITFRQFMNGALRGQVANATPNMGDWINHLSTLFPEVRLKRFLEMRGADCGSLKRICALSAFWVGILYDSEALNEAEALTKDWCFEEVLDMRKRVPKEGLKTPFRQTIILEIARQAVAISHKGLKNRRQYASNGLDETSFLAPLEEVIAMGQTDADKFLSLYHSIWDKSVEPVFLECVY | not soluble |
| MALDKLLENEAQSEIERIRAEARGRAEKIVADARERAQTLLDSRQRLLENQRQAGLVRARSAADLELNAARLTASESGVTQVYQMVEDYLGNVTSAPEYGNILSRLIQEGLQAVPDAEAIEVNPAEMNVARHLVSGVEVRENPSIKGGVRVVARGGKSGVTNTLSGRLERVKADMAPQISRLLAE | soluble |
| MALIGRQTTIQMIDLEPELPTQKDYQSDILRELTQIRNENLEYNRLEVYVLELEQIMRIRMIVDLLDLGGRLNSETLLQMCYRLVNQETDLENLRNFRDSQFAQEEQRRDRLREIGQRIFNRFEQQQEEAAGNREGSEAGERPSKENIEFRIWRFLSVLQHQDGLERLDELEREIAVRREMNAADQFQEGQDFFARINPDIVAEGIPHHNNRDNIPIERQYRTEFIQLANDLQSPPDDVRLDVFRRLIDLGVQFQESRLEQDRQRIQEEPQRQREGEIMDQLNDSVKGDMRRLNPMAPGNASGNIQQEGAGIETDVDVDDELEDEYSGSDSSQDVEEVPEESSERYVADTGSATNQPSSSTSEPNAGNEEVEDPSQRTRKRGNGSELSDAKRTN | soluble |
| MALKVIKISRVSPATASVDPLIVPLSFFDLQWLKLNPTEQVFFYKLTESSSSRDVFYSSILPKLERSLSLILTHFRLFTGHLKWDSQDPKPHLVVLSGDTLSLTVAETDADFSRISGRGLRPELELRPLIPELPIYSDSGAVVSLQVTLFPKQGFCIGTTAHHVVLDGKTAEKFNKAWAHTCKHGTIPKILPTVLDRSVVNVPAGLEQKMLELLPYLTEDDKENGRTLKLPPVKEINAKDNVLRITIEISPENIEKLKERAKKESTRAELHLSTFVVTFAHVWTCMVKARSGDPNRPVRFMYAADFRNRLEPPVPVTYFGTCVLAMDFYKYKAKEFMGEDGFVNTVEILSDSVKRLASQGVESTWKVYEEGTKTMKWGTQLLVVNGSNQIGMYETDFGWGRPIHTETMSIYKNDEFSMSKRRDGIGGVEIGISLKKLEMDTFLSLFYKWIGN | soluble |
| MALLCYNRGCGQRFDPETNSDDACTYHPGVPVFHDALKGWSCCKRRTTDFSDFLSIVGCTKGRHNSEKPPEPVKPEVKTTEKKELCELKPKFQEHIIQAPKPVEAIKRPSPDEPMTNLELKISASLKQALDKLKLSSGNEENKKEEDNDEIKIGTSCKNGGCSKTYQGLESLEEVCVYHSGVPIFHEGMKYWSCCRRKTSDFNTFLAQEGCTKGKHMWTKKDAGKKVVPCRHDLHQTGGEVTISVYAKNSLPELSRVEANSTLLNVIIVFEGEKEFDQNVKLWGVIDVKRSYVTMTATKIEITMRKAEPMQWASLELPAAKKQEKQKDDTTD | soluble |
| MALVQALVPREREPKLSILQMDRGDPQHSSHWCPEREKVKLLTLKPRETSKNILINFYRAFNLDKDVFIHQANHPLTVPSSVVMGDNGHTLAEDDKRPCFRVLPCYLERVSSGISISWISAPLPVGAMKHQLLCDLMDLITLSFWLAGQCMSLKATNMQHCKCSIATSDWAIELDRTDYKTLPSEYSILALLQVFAGKNCMDRVLLHVDVNYLKSLP | soluble |
